Four molecules from paper PMC10140304, “Flagellar brake protein YcgR interacts with motor proteins MotA and FliG to regulate the flagellar rotation speed and direction” (Frontiers in Microbiology, 2023) can be followed below.

B1: mYPet-YcgR(Q38A/D54A/N62A)-mCyPet mutant biosensor (natural protein, E. coli MG1655, UniProt P76010 1-244, looked up)
chain: MSHYHEQFLKQNPLAVLGVLRDLHKAAIPLRLSWNGGALISKLLAITPDKLVLAFGSQAEDAIAVLKAQHITITAETQGAKVEFTVEQLQQSEYLQLPAFITVPPPTLWFVQRRRYFRISAPLHPPYFCQTKLADNSTLRFRLYDLSLGGMGALLETAKPAELQEGMRFAQIEVNMGQWGVFHFDAQLISISERKVIDGKNETITTPRLSFRFLNVSPTVERQLQRIIFSLEREAREKADKVRD
notes: Flagellar brake protein YcgR, E. coli MG1655, triple mutant Q38A/D54A/N62A, between YPet (A206K) and CyPet (A206K); Printed both as QDN/AAA and QND/AAA; also called QDN/AAA; QND/AAA biosensor; source: E. coli BL21 (DE3), purified following Hou et al., 2020; not shown: mYPet (YPet A206K), N-terminal, kept; mCyPet (CyPet A206K), C-terminal, kept
B2: mYPet-YcgR(D54A)-mCyPet mutant biosensor (natural protein, E. coli MG1655, UniProt P76010 1-244, looked up)
chain: MSHYHEQFLKQNPLAVLGVLRDLHKAAIPLRLSWNGGQLISKLLAITPDKLVLAFGSQAEDNIAVLKAQHITITAETQGAKVEFTVEQLQQSEYLQLPAFITVPPPTLWFVQRRRYFRISAPLHPPYFCQTKLADNSTLRFRLYDLSLGGMGALLETAKPAELQEGMRFAQIEVNMGQWGVFHFDAQLISISERKVIDGKNETITTPRLSFRFLNVSPTVERQLQRIIFSLEREAREKADKVRD
notes: Flagellar brake protein YcgR, E. coli MG1655, mutant D54A, between YPet (A206K) and CyPet (A206K); also called YcgR biosensor mutant D54A; source: E. coli BL21 (DE3), purified following Hou et al., 2020; not shown: mYPet (YPet A206K), N-terminal, kept; mCyPet (CyPet A206K), C-terminal, kept

The target of test [1] is T1, FliG (E. coli MG1655, UniProt P0ABZ1 1-331).
T1 construct: Flagellar motor switch (rotor) protein FliG, E. coli MG1655; also called individual FliG; rotor protein FliG; source: E. coli BL21 (DE3), purified following Hou et al., 2020
T1 sequence (looked up): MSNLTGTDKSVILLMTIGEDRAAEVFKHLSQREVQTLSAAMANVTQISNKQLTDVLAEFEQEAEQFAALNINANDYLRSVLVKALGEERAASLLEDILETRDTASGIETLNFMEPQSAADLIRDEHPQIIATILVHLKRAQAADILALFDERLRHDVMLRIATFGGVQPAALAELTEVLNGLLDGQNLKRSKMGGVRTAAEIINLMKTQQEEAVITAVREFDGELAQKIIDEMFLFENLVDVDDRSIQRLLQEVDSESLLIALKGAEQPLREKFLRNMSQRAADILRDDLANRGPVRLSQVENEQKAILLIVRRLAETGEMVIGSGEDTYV
Kind of test: FRET or BRET; in vitro, intramolecular FRET of 1.5 uM YcgR biosensor oversaturated with excess c-di-GMP (2 mM), titrated with gradient concentrations of motor protein; 25 C, SEC buffer; FRET/CFP ratio fitted to a logistic equation. To be noted: both partners purified. (In general: In BRET a luciferase serves as donor, and the signal depends on an acceptor being close.)

Test [2] deals with T1, FliG. In words: FRET or BRET; in vitro, intramolecular FRET of 1.5 uM YcgR biosensor (mYPet-YcgR-mCyPet) titrated with 0-500 uM motor protein, without c-di-GMP; 25 C, SEC buffer (20 mM HEPES pH 7.5, 150 mM NaCl, 10% glycerol); FRET/CFP ratio fitted to a logistic equation. As to conditions: both partners purified.
Test [3] deals with B1. In words: FRET or BRET; in vitro, intramolecular FRET of 1.5 uM YcgR biosensor oversaturated with excess c-di-GMP (2 mM), titrated with gradient concentrations of motor protein; 25 C, SEC buffer; FRET/CFP ratio fitted to a logistic equation. To be noted: both partners purified.
Test [4] deals with T2, mYPet-YcgR-mCyPet (YcgR-biosensor), wild-type E. coli YcgR (E. coli MG1655), P76010.
T2 chain: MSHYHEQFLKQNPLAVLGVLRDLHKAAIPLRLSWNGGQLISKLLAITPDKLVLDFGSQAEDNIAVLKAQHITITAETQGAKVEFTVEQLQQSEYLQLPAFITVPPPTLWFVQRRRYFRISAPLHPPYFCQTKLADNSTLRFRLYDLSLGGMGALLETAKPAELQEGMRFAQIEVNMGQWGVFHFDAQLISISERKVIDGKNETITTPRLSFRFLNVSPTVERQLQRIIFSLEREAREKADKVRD
The description is as above. To be noted: remark: other sources report otherwise.

For test [5], the target named is B1. In words: FRET or BRET; in vitro, intramolecular FRET of 1.5 uM YcgR biosensor (mYPet-YcgR-mCyPet) titrated with 0-500 uM motor protein, without c-di-GMP; 25 C, SEC buffer (20 mM HEPES pH 7.5, 150 mM NaCl, 10% glycerol); FRET/CFP ratio fitted to a logistic equation. To be noted: both partners purified.
Test [6] deals with B2. Described as above. As to conditions: both partners purified.
The target of test [7] is T2, mYPet-YcgR-mCyPet (YcgR-biosensor), …. The test is described as above. As to conditions: remark: other sources report otherwise.

In general, Kd refers to the constant that tells how readily two partners part at equilibrium.

B1: the values for the Kd in test [1] and in test [2] were 235 ± 35.4 µM and 139 ± 15.6 µM, respectively.
The like results for B2 were, in that order, 213 µM and 141 ± 9.8 µM.

B3: mYPet-YcgR-mCyPet (YcgR-biosensor), wild-type E. coli YcgR (natural protein, E. coli MG1655, UniProt P76010 1-244, looked up)
chain: MSHYHEQFLKQNPLAVLGVLRDLHKAAIPLRLSWNGGQLISKLLAITPDKLVLDFGSQAEDNIAVLKAQHITITAETQGAKVEFTVEQLQQSEYLQLPAFITVPPPTLWFVQRRRYFRISAPLHPPYFCQTKLADNSTLRFRLYDLSLGGMGALLETAKPAELQEGMRFAQIEVNMGQWGVFHFDAQLISISERKVIDGKNETITTPRLSFRFLNVSPTVERQLQRIIFSLEREAREKADKVRD
notes: Flagellar brake protein YcgR, E. coli MG1655, cloned between YPet (A206K) and CyPet (A206K) in an engineered pET15b; YFP and CFP report FRET within one chain; also called YcgR-FRET; FRET-based YcgR biosensor; source: E. coli BL21 (DE3), purified following Hou et al., 2020; not shown: mYPet (YPet A206K), N-terminal, kept; mCyPet (CyPet A206K), C-terminal, kept
With B3, the values for the Kd in test [1] and in test [2] were 107 µM and 143 µM, respectively.

B4: MotAc, cytoplasmic domain of MotA (residues 70-170 of MotA) (domain or fragment, E. coli MG1655, UniProt P09348 70-170, looked up)
chain: YTKAMYMDLLALLYRLMAKSRQMGMFSLERDIENPRESEIFASYPRILADSVMLDFIVDYLRLIISGHMNTFEIEALMDEEIETHESEAEVPANSLALVGD
notes: Flagellar stator protein MotA, E. coli MG1655, cytoplasmic domain, residues 70-170; source: E. coli BL21 (DE3), purified following Hou et al., 2020
B4: the Kd is 46.1 ± 2.2 µM in test [3]; 35.9 µM in test [4]; 151 ± 10.2 µM in test [5]; 114 ± 11.3 µM in test [6]; 123 µM in test [7].
